This is an account of results in the RNAGym collection of RNA variant scans (doi:10.7554/elife.90254).

B1: OR4K15 (parent)
chain: GUUAACGGUCAUAGGCCAUGGAAACUAGGAGCACCAUUUCGCUGCCAGUGAAGAAAUGAACAAAGAAAAUCUGGGCCAGGCAGGCAUCAAAAGAAAUAGUCUUGCGCUCAACCAGAAAGUCUGUAAUCAUUUUAAGGGUA

In the series the parent is B1. Nature of the series: self-cleavage, relative activity (ratio to wild type); higher = more cleavage; in vitro, sequencing; the parent is a self-cleaving ribozyme.
In the case of GUUAACGGUCAUAGGCCAUGGAAACUAGGAGCACCAUUUCGCUGCCAGUGAAGAAAUGAACAAAGAAAAUCUGGGCCAGGCAGGCAUCAAAAGACAUAGUCUUGCGCUCGACCAGAAAGUCUGUAAUCAUUUUAAGGGUA, the self-cleavage is 0.16.

On to GUUAACGGUCAUAGGCCAUGGAAACUAGGAGCACCAUUUCGCUGCCAGUGAAGAAAUGAACAAAGAAAAUCUGGGCCAGGCAGGCAUCAAAAGUAAUAGUCUCGCGCUCAACCAGAAAGUCUGUAAUCAUUUUAAGGGUA, for which the self-cleavage was determined as 0.46.

On to GUUAACGGUCAUAGGCCAUGGAAACUAGGAGCACCAUUUCGCUGCCAGUGAAGAAAUGAACAAAGAAAAUCUGGGCCAGGCAGGCAUCAAAAGUAAUAGUCUUGCGCUCAACCAGAAAGUCUGUAAUCAUUUUAGGGGUA, for which the self-cleavage worked out at 2.33.

For GUUAACGGUCAUAGGCCAUGGAAACUAGGAGCACCAUUUCGCUGCCAGUGAAGAAAUGAACAAAGAAAAUCUGGGCCAGGCAGGCAUCAAAAGUAAUAGUCUUGCGCUCAACCAGAAAAUCUGUAAUCAUUUUAAGGGUA, the self-cleavage came to 2.29.

As to GUUAACGGUCAUAGGCCAUGGAAACUAGGAGCACCAUUUCGCUGCCAGUGAAGAAAUGAACAAAGAAAAUCUGGGCCAGGCAGGCAUCAAAAGGAAUAGUCUUGCACUCAACCAGAAAGUCUGUAAUCAUUUUAAGGGUA, the self-cleavage was determined as 0.

On to GUUAACGGUCAUAGGCCAUGGAAACUAGGAGCACCAUUUCGCUGCCAGUGAAGAAAUGAACAAAGAAAAUCUGGGCCAGGCAGGCAUCAAAAGAGAUAGUCUUGCGCUCCACCAGAAAGUCUGUAAUCAUUUUAAGGGUA, for which the self-cleavage worked out at 0.39.

On to GUUAACGGUCAUAGGCCAUGGAAACUAGGAGCACCAUUUCGCUGCCAGUGAAGAAAUGAACAAAGAAAAUCUGGGCCAGGCAGGCAUCAAAAGAGAUAGUCUUGCGCUCGACCAGAAAGUCUGUAAUCAUUUUAAGGGUA, for which the self-cleavage amounted to 0.15.

As for GUUAACGGUCAUAGGCCAUGGAAACUAGGAGCACCAUUUCGCUGCCAGUGAAGAAAUGAACAAAGAAAAUCUGGGCCAGGCAGGCAUCAAAAGACGUAGUCUUGCGCUCAACCAGAAAGUCUGUAAUCAUUUUAAGGGUA, the self-cleavage amounted to 1.13.

GUUAACGGUCAUAGGCCAUGGAAACUAGGAGCACCAUUUCGCUGCCAGUGAAGAAAUGAACAAAGAAAAUCUGGGCCAGGCAGGCAUCAAAAGUAAUAGUCUUGCGCUCAACCAGAAGGUCUGUAAUCAUUUUAAGGGUA: the self-cleavage was 1.51.

As to GUUAACGGUCAUAGGCCAUGGAAACUAGGAGCACCAUUUCGCUGCCAGUGAAGAAAUGAACAAAGAAAAUCUGGGCCAGGCAGGCAUCAAAAGUAAUAGUCUUGCGCUCAACCAGAACGUCUGUAAUCAUUUUAAGGGUA, the self-cleavage came out at 1.53.

For the variant GUUAACGGUCAUAGGCCAUGGAAACUAGGAGCACCAUUUCGCUGCCAGUGAAGAAAUGAACAAAGAAAAUCUGGGCCAGGCAGGCAUCAAAAGGAACAGUCUUGCGCUCAACCAGAAAGUCUGUAAUCAUUUUAAGGGUA, the self-cleavage was found to be 1.12.

Take GUUAACGGUCAUAGGCCAUGGAAACUAGGAGCACCAUUUCGCUGCCAGUGAAGAAAUGAACAAAGAAAAUCUGGGCCAGGCAGGCAUCAAAAGUAAUAGUCUUGCGCUCAACCAGCAAGUCUGUAAUCAUUUUAAGGGUA: the self-cleavage was found to be 0.07.

On to GUUAACGGUCAUAGGCCAUGGAAACUAGGAGCACCAUUUCGCUGCCAGUGAAGAAAUGAACAAAGAAAAUCUGGGCCAGGCAGGCAUCAAAAGUAAUAGUCUUGCGCUCAACCAGGAAGUCUGUAAUCAUUUUAAGGGUA, for which the self-cleavage was determined as 0.48.

Turning to GUUAACGGUCAUAGGCCAUGGAAACUAGGAGCACCAUUUCGCUGCCAGUGAAGAAAUGAACAAAGAAAAUCUGGGCCAGGCAGGCAUCAAAAGGAAUAGUCUCGCGCUCAACCAGAAAGUCUGUAAUCAUUUUAAGGGUA, the self-cleavage turned out to be 0.69.

As for GUUAACGGUCAUAGGCCAUGGAAACUAGGAGCACCAUUUCGCUGCCAGUGAAGAAAUGAACAAAGAAAAUCUGGGCCAGGCAGGCAUCAAAAGGAAUAGUCUGGCGCUCAACCAGAAAGUCUGUAAUCAUUUUAAGGGUA, the self-cleavage was determined as 0.03.

As to GUUAACGGUCAUAGGCCAUGGAAACUAGGAGCACCAUUUCGCUGCCAGUGAAGAAAUGAACAAAGAAAAUCUGGGCCAGGCAGGCAUCAAAAGGAAUAGUCUAGCGCUCAACCAGAAAGUCUGUAAUCAUUUUAAGGGUA, the self-cleavage is 0.39.

GUUAACGGUCAUAGGCCAUGGAAACUAGGAGCACCAUUUCGCUGCCAGUGAAGAAAUGAACAAAGAAAAUCUGGGCCAGGCAGGCAUCAAAAGUAAUAGUCUUGCGCUCAACCAGAAAGUCUGUAACCAUUUUAAGGGUA: the self-cleavage came out at 1.21.

Take GUUAACGGUCAUAGGCCAUGGAAACUAGGAGCACCAUUUCGCUGCCAGUGAAGAAAUGAACAAAGAAAAUCUGGGCCAGGCAGGCAUCAAAAGGAAUAGUCUUGCGCUCAACCAGAAAGCCUGUAAUCAUUUUAAGGGUA: the self-cleavage came to 1.02.

For the variant GUUAACGGUCAUAGGCCAUGGAAACUAGGAGCACCAUUUCGCUGCCAGUGAAGAAAUGAACAAAGAAAAUCUGGGCCAGGCAGGCAUCAAAAGUAAUAGUCUUGCGUUCAACCAGAAAGUCUGUAAUCAUUUUAAGGGUA, the self-cleavage stood at 0.01.

GUUAACGGUCAUAGGCCAUGGAAACUAGGAGCACCAUUUCGCUGCCAGUGAAGAAAUGAACAAAGAAAAUCUGGGCCAGGCAGGCAUCAAAAGAGUUAGUCUUGCGCUCAACCAGAAAGUCUGUAAUCAUUUUAAGGGUA: the self-cleavage was 0.7.

Take GUUAACGGUCAUAGGCCAUGGAAACUAGGAGCACCAUUUCGCUGCCAGUGAAGAAAUGAACAAAGAAAAUCUGGGCCAGGCAGGCAUCAAAAGGAAUAGUCUUGUGCUCAACCAGAAAGUCUGUAAUCAUUUUAAGGGUA: the self-cleavage is 0.38.

For the variant GUUAACGGUCAUAGGCCAUGGAAACUAGGAGCACCAUUUCGCUGCCAGUGAAGAAAUGAACAAAGAAAAUCUGGGCCAGGCAGGCAUCAAAAGGAAUAGUCUUGCGCUCAACCAGAAAGUCUGCAAUCAUUUUAAGGGUA, the self-cleavage amounted to 0.21.

On to GUUAACGGUCAUAGGCCAUGGAAACUAGGAGCACCAUUUCGCUGCCAGUGAAGAAAUGAACAAAGAAAAUCUGGGCCAGGCAGGCAUCAAAAGGAAUAGUCUUGCGCUCAACCAGAAAGUCUGUAAUCAUUCUAAGGGUA, for which the self-cleavage worked out at 1.52.

Turning to GUUAACGGUCAUAGGCCAUGGAAACUAGGAGCACCAUUUCGCUGCCAGUGAAGAAAUGAACAAAGAAAAUCUGGGCCAGGCAGGCAUCAAAAGGAAUAGUAUUGCGCUCAACCAGAAAGUCUGUAAUCAUUUUAAGGGUA, the self-cleavage worked out at 0.3.

Regarding GUUAACGGUCAUAGGCCAUGGAAACUAGGAGCACCAUUUCGCUGCCAGUGAAGAAAUGAACAAAGAAAAUCUGGGCCAGGCAGGCAUCAAAAGUAAUAGUCUUGCGCUCAACCAGAAAGUCUGUAAUCAUUUUAAGGGUA, the self-cleavage is 1.08.

Take GUUAACGGUCAUAGGCCAUGGAAACUAGGAGCACCAUUUCGCUGCCAGUGAAGAAAUGAACAAAGAAAAUCUGGGCCAGGCAGGCAUCAAAAGUAAUAGCCUUGCGCUCAACCAGAAAGUCUGUAAUCAUUUUAAGGGUA: the self-cleavage is 2.56.

Take GUUAACGGUCAUAGGCCAUGGAAACUAGGAGCACCAUUUCGCUGCCAGUGAAGAAAUGAACAAAGAAAAUCUGGGCCAGGCAGGCAUCAAAAGUAAUAGUCUUGCGCUCAACCAGAAAGACUGUAAUCAUUUUAAGGGUA: the self-cleavage was found to be 2.18.

Regarding GUUAACGGUCAUAGGCCAUGGAAACUAGGAGCACCAUUUCGCUGCCAGUGAAGAAAUGAACAAAGAAAAUCUGGGCCAGGCAGGCAUCAAAAGUAAUAGUCUUGCUCUCAACCAGAAAGUCUGUAAUCAUUUUAAGGGUA, the self-cleavage is 0.01.

As for GUUAACGGUCAUAGGCCAUGGAAACUAGGAGCACCAUUUCGCUGCCAGUGAAGAAAUGAACAAAGAAAAUCUGGGCCAGGCAGGCAUCAAAAGGAAUAGUCUUGCGCACAACCAGAAAGUCUGUAAUCAUUUUAAGGGUA, the self-cleavage was found to be 0.01.

In the case of GUUAACGGUCAUAGGCCAUGGAAACUAGGAGCACCAUUUCGCUGCCAGUGAAGAAAUGAACAAAGAAAAUCUGGGCCAGGCAGGCAUCAAAAGUAAUAGUCUUGCGCUCAACCAGAAAGUCUGUCAUCAUUUUAAGGGUA, the self-cleavage worked out at 1.08.

Consider GUUAACGGUCAUAGGCCAUGGAAACUAGGAGCACCAUUUCGCUGCCAGUGAAGAAAUGAACAAAGAAAAUCUGGGCCAGGCAGGCAUCAAAAGAGAUUGUCUUGCGCUCAACCAGAAAGUCUGUAAUCAUUUUAAGGGUA, for which the self-cleavage is 1.77.

For the variant GUUAACGGUCAUAGGCCAUGGAAACUAGGAGCACCAUUUCGCUGCCAGUGAAGAAAUGAACAAAGAAAAUCUGGGCCAGGCAGGCAUCAAAAGGAAUAGCCUUGCGCUCAACCAGAAAGUCUGUAAUCAUUUUAAGGGUA, the self-cleavage was found to be 2.37.

Regarding GUUAACGGUCAUAGGCCAUGGAAACUAGGAGCACCAUUUCGCUGCCAGUGAAGAAAUGAACAAAGAAAAUCUGGGCCAGGCAGGCAUCAAAAGUAAUAGUCUUGCGCUCAACCAGAAAGUCUGUAAUCUUUUUAAGGGUA, the self-cleavage is 1.22.

On to GUUAACGGUCAUAGGCCAUGGAAACUAGGAGCACCAUUUCGCUGCCAGUGAAGAAAUGAACAAAGAAAAUCUGGGCCAGGCAGGCAUCAAAAGUAAUAGUCUUGCGCUCAACCAGAAAGUCUGUAGUCAUUUUAAGGGUA, for which the self-cleavage came to 1.84.

Take GUUAACGGUCAUAGGCCAUGGAAACUAGGAGCACCAUUUCGCUGCCAGUGAAGAAAUGAACAAAGAAAAUCUGGGCCAGGCAGGCAUCAAAAGGAAUAGUCUUGCGCUCAACCAGAAAGUCUGUAAUCAAUUUAAGGGUA: the self-cleavage worked out at 1.41.

For GUUAACGGUCAUAGGCCAUGGAAACUAGGAGCACCAUUUCGCUGCCAGUGAAGAAAUGAACAAAGAAAAUCUGGGCCAGGCAGGCAUCAAAAGGAAUAGUCUUGCGCUCAACCAGAAAGUCUGUAAUCACUUUAAGGGUA, the self-cleavage was 1.16.

Regarding GUUAACGGUCAUAGGCCAUGGAAACUAGGAGCACCAUUUCGCUGCCAGUGAAGAAAUGAACAAAGAAAAUCUGGGCCAGGCAGGCAUCAAAAGGAAUAGUCAUGCGCUCAACCAGAAAGUCUGUAAUCAUUUUAAGGGUA, the self-cleavage was determined as 0.96.

On to GUUAACGGUCAUAGGCCAUGGAAACUAGGAGCACCAUUUCGCUGCCAGUGAAGAAAUGAACAAAGAAAAUCUGGGCCAGGCAGGCAUCAAAAGUAAUAGUCUUGCGCUCAUCCAGAAAGUCUGUAAUCAUUUUAAGGGUA, for which the self-cleavage came to 0.12.

Turning to GUUAACGGUCAUAGGCCAUGGAAACUAGGAGCACCAUUUCGCUGCCAGUGAAGAAAUGAACAAAGAAAAUCUGGGCCAGGCAGGCAUCAAAAGUAAUAGUCUUGCGCUCAGCCAGAAAGUCUGUAAUCAUUUUAAGGGUA, the self-cleavage amounted to 0.02.

Turning to GUUAACGGUCAUAGGCCAUGGAAACUAGGAGCACCAUUUCGCUGCCAGUGAAGAAAUGAACAAAGAAAAUCUGGGCCAGGCAGGCAUCAAAAGUAAUGGUCUUGCGCUCAACCAGAAAGUCUGUAAUCAUUUUAAGGGUA, the self-cleavage was found to be 1.06.

With GUUAACGGUCAUAGGCCAUGGAAACUAGGAGCACCAUUUCGCUGCCAGUGAAGAAAUGAACAAAGAAAAUCUGGGCCAGGCAGGCAUCAAAAGUAAUAGUCUUGCGCUCAACCAGAAAGUCCGUAAUCAUUUUAAGGGUA, the self-cleavage amounted to 2.05.
